Measured values published in patent publication CN103211774A, “一种注射用甲磺酸加贝酯组合物及其制备方法” (CHENGDU EASTON PHARMACEUTICAL Co Ltd, priority 2013, dated 2013).

Test system: guinea pig (豚鼠)
Assay: Allergy (sensitisation) test (过敏性试验)
Type: in vivo
Conditions: 0.5 ml x 3 every other day; challenge i.v. 1 ml on day 14 and day 21; observed 30 minutes

B1: 阳性对照组: 5% ovalbumin positive control group (protein, UniProt P01012 2-386, looked up)
Ovalbumin: GSIGAASMEFCFDVFKELKVHHANENIFYCPIAIMSALAMVYLGAKDSTRTQINKVVRFDKLPGFGDSIEAQCGTSVNVHSSLRDILNQITKPNDVYSFSLASRLYAEERYPILPEYLQCVKELYRGGLEPINFQTAADQARELINSWVESQTNGIIRNVLQPSSVDSQTAMVLVNAIVFKGLWEKAFKDEDTQAMPFRVTEQESKPVQMMYQIGLFRVASMASEKMKILELPFASGTMSMLVLLPDEVSGLEQLESIINFEKLTEWTSSNVMEERKIKVYLPRMKMEEKYNLTSVLMAMGITDVFSSSANLSGISSAESLKISQAVHAAHAEINEAGREVVGSAEAGVDAASVSEEFRADHPFLFCIKHIATNAVLFFGRCVSP
  allergic reaction symptoms: 竖毛、发抖、干呕、喷嚏、咳嗽、紫癜、呼吸困难、抽搐、休克、死亡
